Measurements from patent publication US20220332804A1 (CSL INNOVATION, published 2022).
Residue numbers refer to the chain shown, from its start.

Key:
Test in all cases: SPR; KD relative to WT C2;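 note: biacore SPR at 37 °C, anti-C2 mAbs captured on an anti-human IgG chip, alanine or serine C2 surface mutants tested, KD from 1:1 fit compared with wild-type C2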
human C2 V465A = target: T1, human C2 V465A (human, UniProt P06681 21-752)
T1 sequence: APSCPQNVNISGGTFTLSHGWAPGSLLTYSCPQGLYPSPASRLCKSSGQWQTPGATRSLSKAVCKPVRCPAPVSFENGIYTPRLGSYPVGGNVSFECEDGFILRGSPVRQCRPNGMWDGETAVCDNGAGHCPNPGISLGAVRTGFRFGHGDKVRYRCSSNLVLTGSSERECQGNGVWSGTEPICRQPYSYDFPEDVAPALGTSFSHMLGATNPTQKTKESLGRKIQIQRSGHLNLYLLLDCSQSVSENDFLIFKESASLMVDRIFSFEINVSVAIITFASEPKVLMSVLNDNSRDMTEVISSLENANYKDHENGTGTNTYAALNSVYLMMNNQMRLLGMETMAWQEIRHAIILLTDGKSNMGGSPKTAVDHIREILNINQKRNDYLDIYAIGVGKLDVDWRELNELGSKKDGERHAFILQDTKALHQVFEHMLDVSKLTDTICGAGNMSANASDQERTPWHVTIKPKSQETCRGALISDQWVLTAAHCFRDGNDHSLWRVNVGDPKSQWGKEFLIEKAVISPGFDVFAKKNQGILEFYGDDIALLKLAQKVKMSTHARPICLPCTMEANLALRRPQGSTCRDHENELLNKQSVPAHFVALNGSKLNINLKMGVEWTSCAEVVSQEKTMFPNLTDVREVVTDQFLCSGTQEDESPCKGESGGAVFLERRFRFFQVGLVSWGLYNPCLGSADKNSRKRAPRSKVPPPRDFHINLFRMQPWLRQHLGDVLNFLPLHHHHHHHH

human C2 K457A = target: T2, human C2 K457A (human, UniProt P06681 21-752)
T2 sequence: T1 sequence with K437A, A445V

human C2 R519A = target: T3, human C2 R519A (human, UniProt P06681 21-752)
T3 sequence: T1 sequence with A445V, R499A

human C2 N467A = target: T4, human C2 N467A (human, UniProt P06681 21-752)
T4 sequence: T1 sequence with A445V, N447A

Fold diff (human C2 V465A): 2 fold
Fold diff (human C2 K457A): 1 fold
Fold diff (human C2 R519A): 1 fold
Fold diff (human C2 N467A): 2 fold
B1: RF16-214 (antibody, V domains shown)
VH: EVQLLESGGGLVQPGGSLRLSCAASGFTFSWYQMMWVRQAPGKGLEWVSRIYPSGGGTAYADSVKGRFTISRDNSKNTLYLQMNSLRAEDTAVYYCARDAGYGDNWGQGTLVTVSS
VL: QSALTQPPSVSVSPGQTASITCSGDKLGEKYASWYQQKAGQSPVMVIYQDRKRPSGIPERFSGSNSGNTATLTISGTQAMDEADYYCQAWDTRAVVFGGGTKLTVLG
